*1 amine or outer side, *2 acyl side, *3 side chain or, on linkers, in order; H or OH if unused. Where no end group is shown, it is not given here. [ ]: non-standard residue; d: D form. ReO = oxorhenium(V), one metal core binding both hemi-chelators, from trichlorooxobis(triphenylphosphine)rhenium(V); GlyN3 = N-(3-aminopropyl)glycine amide, Cys acylated on the omega-amine, NC(=O)CN(CCCN[*:3])[*:1]; GlyN6 = Gly building unit carrying an omega-amine (Cys attached there); N(6-aminohexyl)Gly = O=C(CN(CCCCCCN[*:3])[*:1])[*:2]; N(2-Aminoethyl)Gly = O=C(CN(CCN[*:3])[*:1])[*:2]

25 molecules from patent US20050226813A1, “Labelled somatostatin analogs backbone cyclized through metal complexation” (priority 2002, published 2005) can be followed below.

B1: ReO-GF-9 (peptide)
peptide: CGFW[dW]KTF[N(6-aminohexyl)Gly](Cys)-NH2
modifications: bridge (positions not given here); not fully specified (bridges); also: N2S2 oxorhenium(V) chelate via the two Cys
B2: ReO-GF-43 (peptide)
peptide: CGFWWKTFG
modifications: not fully specified; D-Cys at 1; D-Trp at 5; GlyN2 building unit at 9 with L-Cys on its omega-amine; C-terminal amide; ReO (oxorhenium(V)) chelated by the two Cys closes the ring
B3: ReO-GF-10 (peptide)
peptide: CGFWWKTFG
modifications: not fully specified; L-Cys at 1; D-Trp at 5; GlyN6 building unit at 9 with D-Cys on its omega-amine; C-terminal amide; ReO (oxorhenium(V)) chelated by the two Cys closes the ring
notes: also called ReO-LCys*-Gly-Phe-Trp-DTrp-Lys-Thr-Phe-GlyN6(DCys*)-NH2
B4: ReO-GF-22 (peptide)
peptide: CXFWWKTFG
modifications: L-Cys at 1; beta-Ala at 2 (written X); D-Trp at 5; GlyN3 building unit at 9 with D-Cys on its omega-amine; C-terminal amide; ReO (oxorhenium(V)) chelated by the two Cys closes the ring
B5: ReO-GF-16 (peptide)
peptide: CFWWKTFG
modifications: not fully specified; D-Cys at 1; D-Trp at 4; GlyN6 building unit at 8 with D-Cys on its omega-amine; C-terminal amide; ReO (oxorhenium(V)) chelated by the two Cys closes the ring
B6: ReO-GF-2 (peptide)
peptide: CXFWWKTFG
modifications: L-Cys at 1; GABA at 2 (written X); D-Trp at 5; GlyN6 building unit at 9 with D-Cys on its omega-amine; C-terminal amide; ReO (oxorhenium(V)) chelated by the two Cys closes the ring
notes: also called ReO-GF-02; ReO-LCys*-GABA-Phe-Trp-DTrp-Lys-Thr-Phe-GlyN6(DCys*)-NH2
B7: ReO-GF-29 (peptide)
peptide: CFWWKTFG
modifications: not fully specified; L-Cys at 1; D-Trp at 4; GlyN3 building unit at 8 with L-Cys on its omega-amine; C-terminal amide; ReO (oxorhenium(V)) chelated by the two Cys closes the ring
notes: also called ReO-LCys*-Phe-Trp-DTrp-Lys-Thr-Phe-GlyN3(LCys*)-NH2
B8: ReO-GF-12 (peptide)
peptide: CGFWWKTFG
modifications: not fully specified; D-Cys at 1; D-Trp at 5; GlyN6 building unit at 9 with D-Cys on its omega-amine; C-terminal amide; ReO (oxorhenium(V)) chelated by the two Cys closes the ring
B9: ReO-GF-5 (peptide)
peptide: CXFWWKTFG
modifications: L-Cys at 1; beta-Ala at 2 (written X); D-Trp at 5; GlyN6 building unit at 9 with L-Cys on its omega-amine; C-terminal amide; ReO (oxorhenium(V)) chelated by the two Cys closes the ring
B10: ReO-GF-35 (peptide)
peptide: CXFWWKTFG
modifications: D-Cys at 1; GABA at 2 (written X); D-Trp at 5; GlyN2 building unit at 9 with L-Cys on its omega-amine; C-terminal amide; ReO (oxorhenium(V)) chelated by the two Cys closes the ring
B11: ReO-GF-7 (peptide)
peptide: CXFWWKTFG
modifications: not fully specified; D-Cys at 1; beta-Ala at 2 (written X); D-Trp at 5; GlyN6 building unit at 9 with L-Cys on its omega-amine; C-terminal amide; ReO (oxorhenium(V)) chelated by the two Cys closes the ring
B12: ReO-GF-45 (peptide)
peptide: CFW[dW]KTF[N(2-Aminoethyl)Gly](Cys)-NH2
modifications: bridge (positions not given here) via ReO; not fully specified (bridges); also: N2S2 oxorhenium(V) chelate via the two Cys
B13: ReO-GF-24 (peptide)
peptide: CXFWWKTFG
modifications: not fully specified; D-Cys at 1; beta-Ala at 2 (written X); D-Trp at 5; GlyN3 building unit at 9 with D-Cys on its omega-amine; C-terminal amide; ReO (oxorhenium(V)) chelated by the two Cys closes the ring
B14: ReO-GF-25 (peptide)
peptide: CGFW[dW]KTF[GlyN3](Cys)-NH2
modifications: bridge (positions not given here) via ReO; not fully specified (bridges); also: N2S2 oxorhenium(V) chelate via the two Cys
B15: ReO-GF-46 (peptide)
peptide: CFW[dW]KTF[N(2-Aminoethyl)Gly](dC)-NH2
modifications: bridge (positions not given here) via ReO; not fully specified (bridges); also: N2S2 oxorhenium(V) chelate via the two Cys
B16: ReO-GF-14 (peptide)
peptide: CFWWKTFG
modifications: not fully specified; L-Cys at 1; D-Trp at 4; GlyN6 building unit at 8 with D-Cys on its omega-amine; C-terminal amide; ReO (oxorhenium(V)) chelated by the two Cys closes the ring
notes: also called ReO-LCys*-Phe-Trp-DTrp-Lys-Thr-Phe-GlyN6(DCys*)-NH2
B17: ReO-GF-37 (peptide)
peptide: CXFWWKTFG
modifications: L-Cys at 1; beta-Ala at 2 (written X); D-Trp at 5; GlyN2 building unit at 9 with L-Cys on its omega-amine; C-terminal amide; ReO (oxorhenium(V)) chelated by the two Cys closes the ring
notes: also called ReO-LCys*-βAla-Phe-Trp-DTrp-Lys-Thr-Phe-GlyN2(LCys*)-NH2
B18: ReO-GF-41 (peptide)
peptide: CGFW[dW]KTF[N(2-Aminoethyl)Gly](Cys)-NH2
modifications: bridge (positions not given here) via ReO; not fully specified (bridges); also: N2S2 oxorhenium(V) chelate via the two Cys
B19: ReO-GF-4 (peptide)
peptide: CXFWWKTFG
modifications: not fully specified; D-Cys at 1; GABA at 2 (written X); D-Trp at 5; GlyN6 building unit at 9 with D-Cys on its omega-amine; C-terminal amide; ReO (oxorhenium(V)) chelated by the two Cys closes the ring
B20: ReO-GF-6 (peptide)
peptide: CXFWWKTFG
modifications: L-Cys at 1; beta-Ala at 2 (written X); D-Trp at 5; GlyN6 building unit at 9 with D-Cys on its omega-amine; C-terminal amide; ReO (oxorhenium(V)) chelated by the two Cys closes the ring
notes: also called ReO-GF-06; ReO-LCys*-βAla-Phe-Trp-DTrp-Lys-Thr-Phe-GlyN6(DCys*)-NH2
B21: ReO-GF-13 (peptide)
peptide: CFW[dW]KTF[GlyN6](Cys)-NH2
modifications: bridge (positions not given here) via ReO; not fully specified (bridges); also: oxorhenium(V) metal chelate (N2S2)
B22: ReO-GF-47 (peptide)
peptide: CFWWKTFG
modifications: not fully specified; D-Cys at 1; D-Trp at 4; GlyN2 building unit at 8 with L-Cys on its omega-amine; C-terminal amide; ReO (oxorhenium(V)) chelated by the two Cys closes the ring
B23: ReO-GF-8 (peptide)
peptide: CXFWWKTFG
modifications: not fully specified; D-Cys at 1; beta-Ala at 2 (written X); D-Trp at 5; GlyN6 building unit at 9 with D-Cys on its omega-amine; C-terminal amide; ReO (oxorhenium(V)) chelated by the two Cys closes the ring
B24: ReO-GF-36 (peptide)
peptide: CXFWWKTFG
modifications: not fully specified; D-Cys at 1; GABA at 2 (written X); D-Trp at 5; GlyN2 building unit at 9 with D-Cys on its omega-amine; C-terminal amide; ReO (oxorhenium(V)) chelated by the two Cys closes the ring
B25: ReO-GF-17 (peptide)
peptide: CXFWWKTFG
modifications: L-Cys at 1; GABA at 2 (written X); D-Trp at 5; GlyN3 building unit at 9 with L-Cys on its omega-amine; C-terminal amide; ReO (oxorhenium(V)) chelated by the two Cys closes the ring

The test deals with T1, human cloned SST-R2 (human, UniProt P30874 1-369).
T1 construct: whole, on cells; Assayed as membrane preparations of CHO cells expressing the cloned receptor, not as intact cells; also called hSST-R2; human SST-R2
T1 sequence (P30874 whole entry): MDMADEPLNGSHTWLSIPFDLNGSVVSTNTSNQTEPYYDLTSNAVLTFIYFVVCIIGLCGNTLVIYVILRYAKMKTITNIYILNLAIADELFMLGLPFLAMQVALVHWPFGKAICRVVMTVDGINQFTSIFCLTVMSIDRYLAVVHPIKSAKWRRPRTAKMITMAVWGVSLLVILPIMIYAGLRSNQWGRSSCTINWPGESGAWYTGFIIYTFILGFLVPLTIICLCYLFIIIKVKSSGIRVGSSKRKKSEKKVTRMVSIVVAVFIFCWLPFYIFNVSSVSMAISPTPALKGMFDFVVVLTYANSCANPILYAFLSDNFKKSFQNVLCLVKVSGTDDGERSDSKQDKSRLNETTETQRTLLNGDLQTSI
Put plainly: inhibition of 125I-Tyr11-SRIF-14 binding to membranes of CHO cells expressing cloned human SST-R2. How it is done:
The SST analogs were tested for their potency in inhibition of the binding of ¹²⁵I-Tyr¹¹-SRIF (based on the method described by Raynor et. al., Molecular Pharmnacology 43: 838, 1993) to membrane preparations expressing the transmembranal SST receptors (SST-R1, 2, 3, 4 or 5). The receptor preparations used for these tests were either from the cloned human receptors selectively and stably expressed in Chinese Hamster Ovary (CHO) cells or from cell lines naturally expressing the SST-R5. Typically, cell membranes were homogenized in Tris buffer in the presence of protease inhibitors and incubated for 30-40 minutes with ¹²⁵I-Tyr¹¹-SRIF with different concentrations of the tested sample. The binding reactions were filtered, the filters were washed and the bound radioactivity was counted in β counter after addition of scintillation colution. Non specific binding was defined as the radioactivity remaining bound in the presence of 1 μM unlabeled SRIF-14.
As usually defined, the IC50 is the concentration that inhibits the measured activity by half. B1 registered an IC50 of about 10 nM.
The molecule B2 returned an IC50 of over 10 nM.
The figure for B3 is 3 nM; for B4 it is 11 nM.
The same measure for B5: 18 nM.
The same measure for B6: 3.8 nM; for B7: 2 nM; for B8: 9 nM.
Molecule B9 had an IC50 of 35 nM. This IC50 lies about 3.9-fold higher than the previous one.
The same measure for B10: over 10 nM; for B11: 12 nM; for B12: over 10 nM.
B13 registered an IC50 of 23 nM. This lies in the double-digit nanomolar range.
B14 yielded an IC50 of over 10 nM.
The figure for B15 is over 10 nM; for B16 it is 7 nM.
B17 came in with an IC50 of 3 nM.
On to B18, for which the IC50 is over 10 nM.
The figure for B19 is 12 nM; for B20 it is 5.3 nM.
In turn, B21 gave an IC50 of about 10 nM.
B22 displayed an IC50 of over 10 nM.
On to B23, for which the IC50 was found to be 5 nM. In other words, the single-digit nanomolar range.
The same measure for B24: over 10 nM; for B25: 24 nM.
